In patent publication US6379959:

Biological target: T1, carboxypeptidase A
T1 sequence (P00730 111-419, species assumed, looked up): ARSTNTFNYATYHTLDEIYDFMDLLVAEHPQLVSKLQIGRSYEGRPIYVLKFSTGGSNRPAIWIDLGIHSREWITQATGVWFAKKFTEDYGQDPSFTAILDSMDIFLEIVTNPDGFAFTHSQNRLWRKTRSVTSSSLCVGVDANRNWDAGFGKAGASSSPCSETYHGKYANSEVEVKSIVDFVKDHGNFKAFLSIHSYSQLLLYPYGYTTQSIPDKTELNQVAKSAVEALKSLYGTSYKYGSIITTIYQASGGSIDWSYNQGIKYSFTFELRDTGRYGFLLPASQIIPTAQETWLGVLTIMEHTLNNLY
Assay: carboxypeptidase inhibition (Ki); reference wild PCI

decrease of the inhibitory capacity against the wild form (orders of magnitude): 3
Binder: EQHADPICNKPCKTHDDCSGAWFCQACWNSARTCGP [PCIdelY37V38G39]
